From patent publication US20150344570A1 (published 2015)

T1: FcγRIIb extracellular domain with C-terminal His tag (human, UniProt P31994 43-217)
T1 construct: extracellular domain; also called 2b; FcgRIIb
T1 sequence (looked up): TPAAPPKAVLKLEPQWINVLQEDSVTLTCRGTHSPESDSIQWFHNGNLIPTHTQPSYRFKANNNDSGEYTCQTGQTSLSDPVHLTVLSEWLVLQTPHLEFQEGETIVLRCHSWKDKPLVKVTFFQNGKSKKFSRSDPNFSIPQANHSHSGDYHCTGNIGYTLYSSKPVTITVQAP

T2: FcγRIIb extracellular domain with C-terminal His tag (human, UniProt P31994 43-217)
T2 construct: extracellular domain; Soluble receptor used as analyte in Biacore; also called FcgRIIb
T2 sequence (looked up): T1 sequence (looked up)

B1: GpH7-A5/GpH7-B3 variant L235_13S/GpL16-k0 (antibody, human IgG1, kappa)
heavy 1: not shown
heavy 2: not shown
light: DIVMTQSPLSLPVTPGEPASISCQASESLVHSNRNTYLHWYLQKPGQSPQLLIYKVSNRFSGVPDRFSGSGSGTDFTLKISRVEAEDVGVYYCSQNTHVPPTFGQGTKVEIERTVAAPSVFIFPPSDEQLKSGTASVVCLLNNFYPREAKVQWKVDNALQSGNSQESVTEQDSKDSTYSLSSTLTLSKADYEKHKVYACEVTHQGLSSPVTKSFNRGEC
notes: also called He Ab
B2: GpH7-A5/GpH7-B3 variant L235_19Q/GpL16-k0 (antibody, human IgG1, kappa)
heavy 1: not shown
heavy 2: not shown
light: B1 light
notes: also called He Ab
B3: GpH7-A5/GpH7-B3 variant L235_18N/GpL16-k0 (antibody, human IgG1, kappa)
heavy 1: not shown
heavy 2: not shown
light: B1 light
notes: also called He Ab
B4: GpH7-A5/GpH7-B3 variant L235_14T/GpL16-k0 (antibody, human IgG1, kappa)
heavy 1: not shown
heavy 2: not shown
light: B1 light
notes: also called He Ab
B5: GpH7-A5/GpH7-B3 variant K326_02A/GpL16-k0 (antibody, human IgG1, kappa)
heavy 1: not shown
heavy 2: not shown
light: B1 light
notes: Heterodimerized IgG1, mutation in the GpH7-B3 chain only; also called He Ab
B6: GpH7-A5/GpH7-B3 variant K326_08L/GpL16-k0 (antibody, human IgG1, kappa)
heavy 1: not shown
heavy 2: not shown
light: B1 light
notes: as for B5
B7: GpH7-A5/GpH7-B3 variant K326_19Q/GpL16-k0 (antibody, human IgG1, kappa)
heavy 1: not shown
heavy 2: not shown
light: B1 light
notes: as for B5
B8: GpH7-A5/GpH7-B3 variant K326_20W/GpL16-k0 (antibody, human IgG1, kappa)
heavy 1: not shown
heavy 2: not shown
light: B1 light
notes: as for B5
B9: GpH7-A5/GpH7-B3 variant S267_02A/GpL16-k0 (antibody, human IgG1, kappa)
heavy 1: not shown
heavy 2: not shown
light: B1 light
notes: as for B5
B10: GpH7-A5/GpH7-B3 variant H268_02A/GpL16-k0 (antibody, human IgG1, kappa)
heavy 1: not shown
heavy 2: not shown
light: B1 light
notes: as for B5
B11: GpH7-A5/GpH7-B3 variant H268_13S/GpL16-k0 (antibody, human IgG1, kappa)
heavy 1: not shown
heavy 2: not shown
light: B1 light
notes: as for B5
B12: GpH7-A5/GpH7-B3 variant H268_18N/GpL16-k0 (antibody, human IgG1, kappa)
heavy 1: not shown
heavy 2: not shown
light: B1 light
notes: as for B5
B13: GpH7-A5/GpH7-B3 variant S267_09D/GpL16-k0 (antibody, human IgG1, kappa)
heavy 1: not shown
heavy 2: not shown
light: B1 light
notes: as for B5
B14: GpH7-A5/GpH7-B3 variant S267_03V/GpL16-k0 (antibody, human IgG1, kappa)
heavy 1: not shown
heavy 2: not shown
light: B1 light
notes: as for B5
B15: GpH7-A5/GpH7-B3 variant K326_15Y/GpL16-k0 (antibody, human IgG1, kappa)
heavy 1: not shown
heavy 2: not shown
light: B1 light
notes: as for B5
B16: GpH7-A5/GpH7-B3 variant K326_14T/GpL16-k0 (antibody, human IgG1, kappa)
heavy 1: not shown
heavy 2: not shown
light: B1 light
notes: as for B5
B17: GpH7-A5/GpH7-B3 variant S267_07I/GpL16-k0 (antibody, human IgG1, kappa)
heavy 1: not shown
heavy 2: not shown
light: B1 light
notes: as for B5
B18: GpH7-A5/GpH7-B3 variant H268_01G/GpL16-k0 (antibody, human IgG1, kappa)
heavy 1: not shown
heavy 2: not shown
light: B1 light
notes: as for B5
B19: GpH7-A5/GpH7-B3 variant S267_10E/GpL16-k0 (antibody, human IgG1, kappa)
heavy 1: not shown
heavy 2: not shown
light: B1 light
notes: as for B5
B20: GpH7-A5/GpH7-B3 variant H268_09D/GpL16-k0 (antibody, human IgG1, kappa)
heavy 1: not shown
heavy 2: not shown
light: B1 light
notes: as for B5
B21: GpH7-A5/GpH7-B3 variant K326_04F/GpL16-k0 (antibody, human IgG1, kappa)
heavy 1: not shown
heavy 2: not shown
light: B1 light
notes: as for B5
B22: GpH7-A5/GpH7-B3 variant S267_06M/GpL16-k0 (antibody, human IgG1, kappa)
heavy 1: not shown
heavy 2: not shown
light: B1 light
notes: as for B5
B23: GpH7-A5/GpH7-B3 variant H268_10E/GpL16-k0 (antibody, human IgG1, kappa)
heavy 1: not shown
heavy 2: not shown
light: B1 light
notes: as for B5
B24: GpH7-A5/GpH7-B3 variant P271_01G/GpL16-k0 (antibody, human IgG1, kappa)
heavy 1: not shown
heavy 2: not shown
light: B1 light
notes: as for B5
B25: GpH7-A5/GpH7-B3 variant K326_03V/GpL16-k0 (antibody, human IgG1, kappa)
heavy 1: not shown
heavy 2: not shown
light: B1 light
notes: as for B5
B26: GpH7-A5/GpH7-B3 variant K326_09D/GpL16-k0 (antibody, human IgG1, kappa)
heavy 1: not shown
heavy 2: not shown
light: B1 light
notes: as for B5
B27: GpH7-A5/GpH7-B3 variant K326_07I/GpL16-k0 (antibody, human IgG1, kappa)
heavy 1: not shown
heavy 2: not shown
light: B1 light
notes: as for B5
B28: GpH7-A5/GpH7-B3 variant K326_06M/GpL16-k0 (antibody, human IgG1, kappa)
heavy 1: not shown
heavy 2: not shown
light: B1 light
notes: as for B5
B29: GpH7-A5/GpH7-B3 variant K326_10E/GpL16-k0 (antibody, human IgG1, kappa)
heavy 1: not shown
heavy 2: not shown
light: B1 light
notes: as for B5
B30: GpH7-A5/GpH7-B3 variant S267_19Q/GpL16-k0 (antibody, human IgG1, kappa)
heavy 1: not shown
heavy 2: not shown
light: B1 light
notes: as for B5

What follows are binders tested against T3, FcγRIIIa extracellular domain with C-terminal His tag (human, UniProt P08637 17-208) (assay: SPR, binding relative to GpH7-A5/GpH7-B3/GpL16-k0 = 100).
T3 construct: extracellular domain; also called 3a; FcgRIIIa
T3 sequence (P08637 17-208): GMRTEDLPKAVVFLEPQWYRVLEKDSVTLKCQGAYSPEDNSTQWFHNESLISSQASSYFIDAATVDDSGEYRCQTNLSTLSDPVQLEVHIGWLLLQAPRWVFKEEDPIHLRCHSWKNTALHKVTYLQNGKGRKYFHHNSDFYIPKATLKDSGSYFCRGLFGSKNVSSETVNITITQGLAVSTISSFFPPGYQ

Binder	He/Con_3a
B1	69.6 % of control
B2	70.5 % of control
B3	67.3 % of control
B4	75.8 % of control

Each binder was assayed against T1, FcγRIIb extracellular domain with … in the same assay as above.

Binder	He/Con_2b
B1	48.2 % of control
B2	42.6 % of control
B3	54.9 % of control
B4	46.8 % of control

What follows are binders tested against T3, FcγRIIIa extracellular domain with … (assay: SPR; ratio of He/Con_3a (FcγRIIIa) to He/Con_2b (FcγRIIb)).
Protocol: The heterodimerized antibodies He Abs in which one of the H chains was introduced with an alteration were assayed for their binding activities to each activating FcγR and inhibitory FcγR according to the method described in Example 4. […] The activating FcγRs in FIGS. 26, 27, 28, and 29 are FcγRIa, FcγRIIa (R), FcγRIIa (H), and FcγRIIIa, respectively.
Analysis of interaction between objective antibody and the FcγR was carried out using Biacore T100 (GE Healthcare). HBS-EP+ (GE Healthcare) was used as the running buffer, and the measurement temperature was set to 25° C. Chips produced by immobilizing the antigen peptide by the amine coupling method to a Series S Sencor Chip CM5 (GE Healthcare), or alternatively, chips produced by allowing preliminarily biotinylated antigen peptides to interact with and immobilize onto a Series S Sensor Chip SA (certified) (GE Healthcare) were used. Antibodies of interest were captured onto an antigen peptide-immobilized chip, and allowed to interact to each FcγR diluted with running buffer. To regenerate and repeatedly use the chip, the antibodies captured on the chip were washed off by reacting 10 mM glycine-HCl, pH 1.5.

Binder	He_3a/2b (IIIa/IIb)
B1	1.44
B2	1.65
B3	1.23
B4	1.62

Each binder was assayed against T4, FcγRIa extracellular domain with C-terminal His tag (human, UniProt P12314 16-292) (assay: ratio He/Con_1a : He/Con_2b (FcγRIa over FcγRIIb), SPR (Biacore)).
T4 construct: extracellular domain; Soluble receptor used as analyte in Biacore; also called FcgRI
T4 sequence (P12314 16-292): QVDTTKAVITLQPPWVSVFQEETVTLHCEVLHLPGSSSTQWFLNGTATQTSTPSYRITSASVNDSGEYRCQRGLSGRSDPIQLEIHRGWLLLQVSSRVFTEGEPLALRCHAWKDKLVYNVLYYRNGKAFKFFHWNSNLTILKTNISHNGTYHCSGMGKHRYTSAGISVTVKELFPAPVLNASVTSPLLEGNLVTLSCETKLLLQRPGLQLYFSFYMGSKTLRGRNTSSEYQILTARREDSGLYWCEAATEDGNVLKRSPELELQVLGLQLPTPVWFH

Binder	He_1a/2b (Ia/IIb)
B5	0.73
B6	0.57
B7	0.73
B8	0.69
B9	0.45
B10	0.65
B11	0.68
B12	0.69
B13	0.35
B14	0.55
B15	0.66
B16	0.7
B17	0.52
B18	0.75
B19	0.28
B20	0.46
B21	0.66
B22	0.51
B23	0.48
B24	0.54
B25	0.58
B26	0.54
B27	0.51
B28	0.62
B29	0.52
B30	0.47

What follows are binders tested against T4, FcγRIa extracellular domain with … (assay: SPR (Biacore), antibody captured, FcγR as analyte; binding relative to GpH7-A5/GpH7-B3/GpL16-k0 = 100).

Binder	He/Con_1a [control = 100]
B5	102
B6	100
B7	102
B8	103
B9	109
B10	109
B11	109
B12	108
B13	110
B14	106
B15	106
B16	104
B17	100
B18	107
B19	106
B20	110
B21	102
B22	106
B23	111
B24	105
B25	102
B26	103
B27	101
B28	102
B29	104
B30	102

Each binder was assayed against T2, FcγRIIb extracellular domain with … in the same assay as above.

Binder	He/Con_2b [control = 100]
B5	139
B6	177
B7	139
B8	148
B9	243
B10	167
B11	160
B12	156
B13	310
B14	192
B15	159
B16	150
B17	192
B18	144
B19	379
B20	239
B21	155
B22	210
B23	230
B24	193
B25	175
B26	193
B27	199
B28	165
B29	200
B30	218
